Earlier results in paper PMC2817915.
Several values for one entry are separate records, joined by “and”; a condition that tells them apart may be missing. Equal entries are not always repeated.

Legend:
Settings in all cases: native HEWL; ligand state not stated
Asp101 = Asp101 (UniProt position 119, KKIVSDGNGMN)
Asp119 = Asp119 (UniProt position 137, RCKGTDVQAWI)
Asp18 = Asp18 (UniProt position 36, KRHGLDNYRGY)
Asp48 = Asp48 (UniProt position 66, TNRNTDGSTDY)
Asp52 = Asp52 (UniProt position 70, TDGSTDYGILQ)
Asp66 = Asp66 (UniProt position 84, RWWCNDGRTPG)
Asp87 = Asp87 (UniProt position 105, ALLSSDITASV)
Glu35 = Glu35 (UniProt position 53, CAAKFESNFNT)
Glu7 = Glu7 (UniProt position 25, VFGRCELAAAM)
His15 = His15 (UniProt position 33, AAMKRHGLDNY)

In the case of “Hen egg-white lysozyme (HEWL, lysozyme C) (Gallus gallus)”, the pKa (Asp101) is given as 4.09, the pKa (Asp119) is given as 3.20 and the pKa (Asp18) is given as 2.66. For the same substance, the pKa (Asp48) was 2.50, the pKa (Asp52) was 3.68 and 3.6−3.76 and the pKa (Asp66) was 2.00. The pKa (Asp87) was 2.07, the pKa (Glu35) was 6.20 and the pKa (Glu7) was 2.85. For the same substance, the pKa (His15) was 5.71.
